In assay [1] the target is T1, PHD of UHRF1 (residues 307–366) (human, UniProt Q96T88 307-366).
T1 chain: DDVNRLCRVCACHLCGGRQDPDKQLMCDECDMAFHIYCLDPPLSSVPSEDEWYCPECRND
Put plainly: ITC; in presence of SRA (PHD/SRA 1:2). Background: Isothermal titration calorimetry measures the heat released or taken up as one component is titrated into another.

For assay [2], the target named is T1, PHD of UHRF1 (residues 307–366). Put plainly: ITC.
For assay [3] the target is unchanged. Kind of assay: ITC; in presence of SRA (PHD/SRA 1:1).
The target is the same in assay [4]. Put plainly: ITC; in presence of SRA (1:1).
A further assay concerns the target T2, PHD-SRA of UHRF1 (human).
T2 chain: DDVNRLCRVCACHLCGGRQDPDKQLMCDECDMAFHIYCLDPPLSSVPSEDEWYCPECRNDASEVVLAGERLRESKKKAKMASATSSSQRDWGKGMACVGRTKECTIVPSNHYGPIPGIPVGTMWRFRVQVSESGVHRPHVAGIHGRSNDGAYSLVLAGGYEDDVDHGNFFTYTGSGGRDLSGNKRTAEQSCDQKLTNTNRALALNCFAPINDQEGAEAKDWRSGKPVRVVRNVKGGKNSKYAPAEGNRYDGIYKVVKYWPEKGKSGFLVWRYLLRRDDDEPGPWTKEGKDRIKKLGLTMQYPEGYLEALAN
Kind of assay: ITC.

The target of assay [5] is T1, PHD of UHRF1 (residues 307–366). Kind of assay: ITC; in presence of SRA (1:2).
Assay [6] has as its target T3, TTD–PHD of UHRF1 (residues 134–366) (human, UniProt Q96T88 134-366).
T3 chain: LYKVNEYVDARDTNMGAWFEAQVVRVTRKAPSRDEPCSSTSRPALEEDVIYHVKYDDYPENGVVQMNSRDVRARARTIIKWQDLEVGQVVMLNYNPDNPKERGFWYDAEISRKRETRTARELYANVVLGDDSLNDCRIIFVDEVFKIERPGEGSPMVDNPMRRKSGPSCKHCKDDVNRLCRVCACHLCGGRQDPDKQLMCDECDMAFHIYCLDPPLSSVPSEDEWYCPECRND
Put plainly: ITC; in presence of Spacer (TTD-PHD/Spacer 1:2).

The target of assay [7] is T4, R295D/R296D mutant of full-length UHRF1 (human, UniProt Q96T88 1-793, R295D | R296D).
T4 sequence: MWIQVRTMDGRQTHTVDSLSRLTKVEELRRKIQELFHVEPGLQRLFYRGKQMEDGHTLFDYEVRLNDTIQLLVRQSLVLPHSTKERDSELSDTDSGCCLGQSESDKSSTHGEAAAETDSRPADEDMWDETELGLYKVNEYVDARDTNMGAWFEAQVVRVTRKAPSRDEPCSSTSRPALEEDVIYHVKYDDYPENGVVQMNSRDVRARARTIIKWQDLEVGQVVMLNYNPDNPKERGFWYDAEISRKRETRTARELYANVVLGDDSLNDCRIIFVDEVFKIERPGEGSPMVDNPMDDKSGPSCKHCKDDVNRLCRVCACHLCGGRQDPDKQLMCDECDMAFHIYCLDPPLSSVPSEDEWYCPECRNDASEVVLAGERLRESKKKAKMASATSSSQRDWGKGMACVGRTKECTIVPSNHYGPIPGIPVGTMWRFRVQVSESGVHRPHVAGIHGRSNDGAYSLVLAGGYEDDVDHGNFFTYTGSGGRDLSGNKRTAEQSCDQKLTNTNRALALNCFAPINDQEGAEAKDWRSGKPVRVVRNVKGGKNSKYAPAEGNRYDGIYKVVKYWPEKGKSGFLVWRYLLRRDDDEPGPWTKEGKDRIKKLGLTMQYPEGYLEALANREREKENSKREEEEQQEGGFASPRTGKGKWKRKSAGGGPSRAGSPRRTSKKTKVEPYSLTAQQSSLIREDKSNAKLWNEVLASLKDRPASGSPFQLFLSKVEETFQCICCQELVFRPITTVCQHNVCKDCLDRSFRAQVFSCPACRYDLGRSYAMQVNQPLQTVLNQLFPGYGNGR
Kind of assay: ITC.

Assay [8] has as its target T5, TTD of UHRF1 (residues 134–285) (human, UniProt Q96T88 134-285).
T5 chain: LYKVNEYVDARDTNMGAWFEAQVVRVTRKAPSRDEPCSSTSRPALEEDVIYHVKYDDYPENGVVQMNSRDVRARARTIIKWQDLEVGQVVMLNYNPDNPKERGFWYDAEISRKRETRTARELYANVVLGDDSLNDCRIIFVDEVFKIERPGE
Kind of assay: ITC; in presence of SRA.

The target of a further assay is T6, UHRF1^Δ627–674 (human, UniProt Q96T88 1-793, Δ627–674).
T6 sequence: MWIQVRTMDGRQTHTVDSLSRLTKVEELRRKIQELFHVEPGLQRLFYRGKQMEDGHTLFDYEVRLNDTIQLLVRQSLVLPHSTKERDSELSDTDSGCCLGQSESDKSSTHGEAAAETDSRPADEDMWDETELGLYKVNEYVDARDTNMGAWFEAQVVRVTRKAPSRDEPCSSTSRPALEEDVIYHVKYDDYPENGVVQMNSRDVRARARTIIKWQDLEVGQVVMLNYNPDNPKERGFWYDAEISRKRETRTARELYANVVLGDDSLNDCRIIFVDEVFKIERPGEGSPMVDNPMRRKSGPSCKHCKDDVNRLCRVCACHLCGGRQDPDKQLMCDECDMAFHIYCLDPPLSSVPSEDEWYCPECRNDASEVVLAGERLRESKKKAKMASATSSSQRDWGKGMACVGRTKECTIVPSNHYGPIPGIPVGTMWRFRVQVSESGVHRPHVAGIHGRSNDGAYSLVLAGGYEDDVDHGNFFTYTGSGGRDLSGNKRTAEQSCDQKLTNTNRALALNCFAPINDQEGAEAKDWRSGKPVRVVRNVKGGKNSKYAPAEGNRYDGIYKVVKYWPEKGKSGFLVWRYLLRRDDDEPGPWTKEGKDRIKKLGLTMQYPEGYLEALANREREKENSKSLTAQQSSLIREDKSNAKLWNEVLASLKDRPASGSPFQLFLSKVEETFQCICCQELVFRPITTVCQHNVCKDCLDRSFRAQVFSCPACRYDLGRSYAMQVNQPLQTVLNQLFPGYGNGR
Kind of assay: ITC.

The target of assay [9] is T5, TTD of UHRF1 (residues 134–285). Kind of assay: ITC.
Assay [10] addresses T3, TTD–PHD of UHRF1 (residues 134–366). Kind of assay: ITC; in presence of Spacer (1:2).
For assay [11], the target named is T5, TTD of UHRF1 (residues 134–285). Kind of assay: ITC; in presence of Spacer K648D (1:2).
Assay [12] shares this target. Kind of assay: ITC; in presence of Spacer R649A (1:2).
Assay [13] shares this target. Put plainly: ITC; in presence of Spacer S651D (1:2).

Consider ARTKQTARKSTGGKAPR [H3 peptide (1–17)], for which the equilibrium dissociation constant (Kd) in assay [1] came to 4640 nM; in assay [2] it was 770 nM; in assay [3], 2040 nM; in assay [4], 2040 nM; with PHD-SRA of UHRF1, 5790 nM; in [5] it was 4640 nM.

ARTKQTARKSTGGKAPR (trimethyl-lysine at K9) [H3K9me3 peptide (1–17)]: the Kd came out at 1630 nM in assay [6]; 36800 nM in assay [7]; 880 nM in assay [8]; 1190 nM with UHRF1^Δ627–674; 990 nM in assay [9]; 1630 nM in [10]. The Kd amounted to 6580 nM in assay [11], 2890 nM in assay [12] and 1280 nM in assay [13].

As a reminder, the Kd is the concentration at which binding is half-saturated.

Source of the values: publication PMC4822050 (2016).
